Laboratory results reported in the Human Domainome abundance scans (Beltran et al. 2025).
± gives the uncertainty stated by the source.

B1: Gamma-crystallin S, residues 96 to 176; numbered along this chain, P22914 (parent)
chain: IQIFEKGDFSGQMYETTEDCPSIMEQFHMREIHSCKVLEGVWIFYELPNYRGRQYLLDKKEYRKPIDWGAASPAVQSFRRI

Variants of: B1
Experiment: abundance fitness (aPCA) (normalised: wild type 0, dead -1); higher = more abundant; growth selection in yeast, the domain comes from the species named
Conditions: Homo sapiens

Variant | abundance fitness
LQIFEKGDFSGQMYETTEDCPSIMEQFHMREIHSCKVLEGVWIFYELPNYRGRQYLLDKKEYRKPIDWGAASPAVQSFRRI [I1L] | -0.154 ± 0.084
IQIFEKGDFSGQMYETTEDCPSIMEQFHMREICSCKVLEGVWIFYELPNYRGRQYLLDKKEYRKPIDWGAASPAVQSFRRI [H33C] | 0.035 ± 0.063
IQIFEKGDFSGQMYETTEDCPSIMEQFHMREILSCKVLEGVWIFYELPNYRGRQYLLDKKEYRKPIDWGAASPAVQSFRRI [H33L] | -0.021 ± 0.044
IQIFEKGDFSGQMYETTEDCPSIMEQFHMREIHSCKVLEGVWIFYELPNYRGRQYLLDKCEYRKPIDWGAASPAVQSFRRI [K60C] | 0.021 ± 0.23
IQIFEKGDFSGQMYETTEDCPSIMEQFHMREIHSCKVLEGVWIFYELPNYRGRQYLLDKKEYRKPIDWGAAMPAVQSFRRI [S72M] | -0.149 ± 0.19
IQIFEKGDFSGQMYETTEDCPSIMEQFHMREIHSCKVLEGVWIFYELPNYRGRQYLLDKKEYRKPIDWGAAPPAVQSFRRI [S72P] | 0.069 ± 0.16
IQIFEKGDFSGQMYETTEDCPSIMEQFHMREIHSCKVLEGVWIFYELPNYRGRQYRLDKKEYRKPIDWGAASPAVQSFRRI [L56R] | 0.191 ± 0.27
IQIFEKGDFSGQMYETTEDCPSIMEQFHMREIHSCKVLEGVWIFWELPNYRGRQYLLDKKEYRKPIDWGAASPAVQSFRRI [Y45W] | -0.065 ± 0.092
IQIFEKGDFSGQMYETTEDCPSIMEQFHMREIHSCKVLEGVWIFKELPNYRGRQYLLDKKEYRKPIDWGAASPAVQSFRRI [Y45K] | -0.712 ± 0.24
IQIFEKGDASGQMYETTEDCPSIMEQFHMREIHSCKVLEGVWIFYELPNYRGRQYLLDKKEYRKPIDWGAASPAVQSFRRI [F9A] | -0.064 ± 0.035
IQIFEKGDFSGQMYETTEDCPSIMEQFHMREIHSCKVLYGVWIFYELPNYRGRQYLLDKKEYRKPIDWGAASPAVQSFRRI [E39Y] | -0.045 ± 0.092
IQIAEKGDFSGQMYETTEDCPSIMEQFHMREIHSCKVLEGVWIFYELPNYRGRQYLLDKKEYRKPIDWGAASPAVQSFRRI [F4A] | -0.275 ± 0.05
IQIDEKGDFSGQMYETTEDCPSIMEQFHMREIHSCKVLEGVWIFYELPNYRGRQYLLDKKEYRKPIDWGAASPAVQSFRRI [F4D] | -0.971 ± 0.2
IQICEKGDFSGQMYETTEDCPSIMEQFHMREIHSCKVLEGVWIFYELPNYRGRQYLLDKKEYRKPIDWGAASPAVQSFRRI [F4C] | -0.008 ± 0.079
IQIFEKGDFSGQMYETTEDCPSIMEQFHMREIHSCKVLEGVWIFYELPNYRGRQYLLDKKEYRKPIDWGAASPAVQCFRRI [S77C] | -0.327 ± 0.44
IQIFEHGDFSGQMYETTEDCPSIMEQFHMREIHSCKVLEGVWIFYELPNYRGRQYLLDKKEYRKPIDWGAASPAVQSFRRI [K6H] | -0.02 ± 0.15
IQIFELGDFSGQMYETTEDCPSIMEQFHMREIHSCKVLEGVWIFYELPNYRGRQYLLDKKEYRKPIDWGAASPAVQSFRRI [K6L] | -0.058 ± 0.067
IQIFEKGDFSGQMYETTEDCPSIMEQFHMREIHSCKVLEGVWIFYELPNYRGRQYLLDKKEYRGPIDWGAASPAVQSFRRI [K64G] | 0.031 ± 0.13
IQIFEKGDFSGQMYETTEDCPSIMEQFHMREIHSCKVLEGVWIFYELPNYRGRQYLLDKKEYRKPIDWGAHSPAVQSFRRI [A71H] | 0.052 ± 0.33
IQIFEKGDFSGQMYETTEDCPSIMEQFHMREIHSCKVLEGVWIFYELPNYRGRQYLLDKKEWRKPIDWGAASPAVQSFRRI [Y62W] | 0.281 ± 0.36
IQIFEKGDFSGQMYETTEDCPSIMEQFHMREIHSCKVLEGVWIFYELPNYRGRQYLLDKKEARKPIDWGAASPAVQSFRRI [Y62A] | -0.099 ± 0.17
IQIFEKGDFSGQMYETTEDCPSIMEQFHMREIHSCKVLEGVWIFYELPNYRLRQYLLDKKEYRKPIDWGAASPAVQSFRRI [G52L] | -0.805 ± 0.089
IQIFEKGDFSGQMYETTEDCPSIMEQFHMREIHSCKVLEGVWIFYELPNYRGRQYLLDKKEYRKPIDWGAASPAVGSFRRI [Q76G] | -0.066 ± 0.34

Variant | abundance fitness
IQIFEKGDFSGQMYETTEDCPSIMEQFHMREIHSCKVLEGVWIFYELPNYRGRQYLLSKKEYRKPIDWGAASPAVQSFRRI [D58S] | 0.014 ± 0.16
IQIFEKGDFSGQMYETTEDCPSIMEQFHMREIHSCKVLEGVWIFYELPNYRGRQYLLPKKEYRKPIDWGAASPAVQSFRRI [D58P] | -0.342 ± 0.24
IQIFEKGDFSGQMYETTEDCPSIMEQFHMREIHSCKVLEGVWIFYELPNYQGRQYLLDKKEYRKPIDWGAASPAVQSFRRI [R51Q] | -0.035 ± 0.066
IQIFEKGDFSGQMYETTEDCPSIMEQFHMREIHSCKVLEGVWIFYELPNYRGRQYLLDKKEYRKPIDWVAASPAVQSFRRI [G69V] | -0.05 ± 0.12
IQIFEKGDFSGQMYETTEDCPSIMEQFHMRERHSCKVLEGVWIFYELPNYRGRQYLLDKKEYRKPIDWGAASPAVQSFRRI [I32R] | -1.01 ± 0.095
IQIFEKGDFSGQMYETTEDCPSIMEQFHMRENHSCKVLEGVWIFYELPNYRGRQYLLDKKEYRKPIDWGAASPAVQSFRRI [I32N] | -0.223 ± 0.23
IQIFEKGDFSGQMYETTEDCPSIMEQFHMREWHSCKVLEGVWIFYELPNYRGRQYLLDKKEYRKPIDWGAASPAVQSFRRI [I32W] | -0.193 ± 0.066
IQIFEKGDFSGQMYETTEDCPSIMEQFHMREEHSCKVLEGVWIFYELPNYRGRQYLLDKKEYRKPIDWGAASPAVQSFRRI [I32E] | -0.348 ± 0.18
IQIFEKGDFSGQMYETTEDCPSIMEQFHMREIHSCKVLEGVWIFYELPNYRGRQYLLDKKEYRKPKDWGAASPAVQSFRRI [I66K] | -0.432 ± 0.28
IQIFEKGDFSGQMYETTEDCPSIMEQFHMSEIHSCKVLEGVWIFYELPNYRGRQYLLDKKEYRKPIDWGAASPAVQSFRRI [R30S] | -0.07 ± 0.046
IQIFEKGDFSGQMYETTEDCPSIMEQFHMNEIHSCKVLEGVWIFYELPNYRGRQYLLDKKEYRKPIDWGAASPAVQSFRRI [R30N] | 0.044 ± 0.14
IQIFEKGDFSGQMYETTEDCPSIMEQFHMREIHSCKVAEGVWIFYELPNYRGRQYLLDKKEYRKPIDWGAASPAVQSFRRI [L38A] | 0.032 ± 0.044
IQIFEKGDFSGQMYETTEDCPSIMEQFHMREIHSCKVLEGVWIFYELPNYRGRQYLLDKKEYRKPIDWGAASPAVQSFRSI [R80S] | -0.023 ± 0.12
IQIFEKGDFSGQMYETTEDCPSIMEQFHMREIHSCKVLEGVWIFYELPNYRGRQYLLDKKEYRKPIDWGHASPAVQSFRRI [A70H] | 0.32 ± 0.27
IQIFEKGDFSGQMYETTEDCPSIMEQFHMREIHSCKVLEGVWIFYELPNYRGRQYLLDKKEYRKPIDWGWASPAVQSFRRI [A70W] | -0.147 ± 0.16
IQIFEKGDFSGQMYETTEDCPSIMEQFVMREIHSCKVLEGVWIFYELPNYRGRQYLLDKKEYRKPIDWGAASPAVQSFRRI [H28V] | -0.011 ± 0.052
IQIFEKGDFSGQMYETTEDCPSIMEQFWMREIHSCKVLEGVWIFYELPNYRGRQYLLDKKEYRKPIDWGAASPAVQSFRRI [H28W] | 0.05 ± 0.072
IQIFEKGDFSGQMYETTEDPPSIMEQFHMREIHSCKVLEGVWIFYELPNYRGRQYLLDKKEYRKPIDWGAASPAVQSFRRI [C20P] | -1.04 ± 0.16
IQIFEKGDFSGQMYETTEDCPSIMERFHMREIHSCKVLEGVWIFYELPNYRGRQYLLDKKEYRKPIDWGAASPAVQSFRRI [Q26R] | 0.009 ± 0.041
IQIFEKGDFSGQMYETPEDCPSIMEQFHMREIHSCKVLEGVWIFYELPNYRGRQYLLDKKEYRKPIDWGAASPAVQSFRRI [T17P] | 0.075 ± 0.071
IQIFEKGDFSGQMYETEEDCPSIMEQFHMREIHSCKVLEGVWIFYELPNYRGRQYLLDKKEYRKPIDWGAASPAVQSFRRI [T17E] | -0.069 ± 0.11
IQIFEKGDFSGQMYETTEDCPSIREQFHMREIHSCKVLEGVWIFYELPNYRGRQYLLDKKEYRKPIDWGAASPAVQSFRRI [M24R] | -0.005 ± 0.056
IQIFEKGDFSGMMYETTEDCPSIMEQFHMREIHSCKVLEGVWIFYELPNYRGRQYLLDKKEYRKPIDWGAASPAVQSFRRI [Q12M] | 0.001 ± 0.071

Variant | abundance fitness
IQIFEKGDFSGSMYETTEDCPSIMEQFHMREIHSCKVLEGVWIFYELPNYRGRQYLLDKKEYRKPIDWGAASPAVQSFRRI [Q12S] | 0.023 ± 0.052
IQIFEKGDFSGQMYETTEDCPSIMEQFHMREIHSCKVLEGVWIFYELPNYRGRQYLLDKKEYRKPIDWGAASPALQSFRRI [V75L] | -0.046 ± 0.12
IQIFEKGDFSGQMYETTEDCPSIMEQFHMREIHSCYVLEGVWIFYELPNYRGRQYLLDKKEYRKPIDWGAASPAVQSFRRI [K36Y] | 0.068 ± 0.092
IQIFEKGDFSGQMYETTEDCPSIMEQFHMREIHSCKVLEGVWIFYELPNYRGRQYLLDKKEYRKPIDWGAASPAVQSLRRI [F78L] | 0.059 ± 0.3
IQIFEKGDFSGQMYETTEDCPSIMEQFHMRYIHSCKVLEGVWIFYELPNYRGRQYLLDKKEYRKPIDWGAASPAVQSFRRI [E31Y] | 0.116 ± 0.12
IQIFEKGDFSGQMYETTEDCPSIMEQFHMREIHSCKVLEAVWIFYELPNYRGRQYLLDKKEYRKPIDWGAASPAVQSFRRI [G40A] | -0.051 ± 0.039
IQIFEKGDFSGQMYETTEDCPSIMEQFHMREIHSCKVLEGVWIFYELPNYRGRQYLLDKKEYRKPIDWGAASHAVQSFRRI [P73H] | 0.006 ± 0.31
IQIFEKGDFSGQMYETTEDCPSIMEQFHMREIHSCKVLEGVWIFYELPNYRGRQYLLDKKEYRKPIDWGAASLAVQSFRRI [P73L] | 0.338 ± 0.39
IQIFEKGDFSGQMYETTEDCPSIMEQFHMREIHSCKVLEGVWIFYELPNCRGRQYLLDKKEYRKPIDWGAASPAVQSFRRI [Y50C] | -0.047 ± 0.047
IPIFEKGDFSGQMYETTEDCPSIMEQFHMREIHSCKVLEGVWIFYELPNYRGRQYLLDKKEYRKPIDWGAASPAVQSFRRI [Q2P] | -0.876 ± 0.22
IQIFEKGDFSGQMYETTEDCPSIMEQFHMREIHSCKVLEGVWIFYELPNYRGHQYLLDKKEYRKPIDWGAASPAVQSFRRI [R53H] | -0.036 ± 0.1
IQIFEKGDFSGQMYETTEDCPSIMEQFHMREIHSCKVLEGVWIFYELPNYRGFQYLLDKKEYRKPIDWGAASPAVQSFRRI [R53F] | -0.055 ± 0.072
IQIFEKGDFSGQMYETTEDCPSIMEQFHMREIHSCKVLEGVWIFYNLPNYRGRQYLLDKKEYRKPIDWGAASPAVQSFRRI [E46N] | -0.275 ± 0.16
IQIFEKGDFSGQMYETTEDCPSIMEQFHMREIHSEKVLEGVWIFYELPNYRGRQYLLDKKEYRKPIDWGAASPAVQSFRRI [C35E] | -0.952 ± 0.14
IQIFEKTDFSGQMYETTEDCPSIMEQFHMREIHSCKVLEGVWIFYELPNYRGRQYLLDKKEYRKPIDWGAASPAVQSFRRI [G7T] | -0.03 ± 0.042
IQIFSKGDFSGQMYETTEDCPSIMEQFHMREIHSCKVLEGVWIFYELPNYRGRQYLLDKKEYRKPIDWGAASPAVQSFRRI [E5S] | -0.046 ± 0.04
IQIFVKGDFSGQMYETTEDCPSIMEQFHMREIHSCKVLEGVWIFYELPNYRGRQYLLDKKEYRKPIDWGAASPAVQSFRRI [E5V] | 0.051 ± 0.039
IQIFKKGDFSGQMYETTEDCPSIMEQFHMREIHSCKVLEGVWIFYELPNYRGRQYLLDKKEYRKPIDWGAASPAVQSFRRI [E5K] | -0.007 ± 0.094
IQIFEKGDFSGQMYETTEDCPSHMEQFHMREIHSCKVLEGVWIFYELPNYRGRQYLLDKKEYRKPIDWGAASPAVQSFRRI [I23H] | -0.201 ± 0.16
IQIFEKGDFSGQMYETTEDCPSYMEQFHMREIHSCKVLEGVWIFYELPNYRGRQYLLDKKEYRKPIDWGAASPAVQSFRRI [I23Y] | 0.024 ± 0.088
IQIFEKGDFSGQMHETTEDCPSIMEQFHMREIHSCKVLEGVWIFYELPNYRGRQYLLDKKEYRKPIDWGAASPAVQSFRRI [Y14H] | 0.034 ± 0.17
IQIFEKGDFSGQMWETTEDCPSIMEQFHMREIHSCKVLEGVWIFYELPNYRGRQYLLDKKEYRKPIDWGAASPAVQSFRRI [Y14W] | -0.056 ± 0.15
